Experimental data reported in paper PMC8813930, “The toposiomerase IIIalpha-RMI1-RMI2 complex orients human Bloom’s syndrome helicase for efficient disruption of D-loops”.

Target: TOPOIIIalpha (TRR complex);RMI1 (TRR complex);RMI2 (TRR complex) (Homo sapiens;Homo sapiens;Homo sapiens, UniProt Q13472;Q9H9A7;Q96E14 1-1001;1-625;1-147, ||)
Test: fluorescence anisotropy; 5 mM MgCl2; 50 mM Tris-HCl pH 7.5, 50 mM NaCl, 1 mM DTT, 5 mM MgCl2, 50 µg/mL BSA, 25 °C; 10 nM labeled DNA in direct titrations
Details: protein: recombinant;recombinant;recombinant; tags: His;;; copies: 1;1;1; label: 3'-fluorescein; single strand

Chain of TOPOIIIalpha (TRR complex);RMI1 (TRR complex);RMI2 (TRR complex) (Q13472 whole entry, chain 1 of 3): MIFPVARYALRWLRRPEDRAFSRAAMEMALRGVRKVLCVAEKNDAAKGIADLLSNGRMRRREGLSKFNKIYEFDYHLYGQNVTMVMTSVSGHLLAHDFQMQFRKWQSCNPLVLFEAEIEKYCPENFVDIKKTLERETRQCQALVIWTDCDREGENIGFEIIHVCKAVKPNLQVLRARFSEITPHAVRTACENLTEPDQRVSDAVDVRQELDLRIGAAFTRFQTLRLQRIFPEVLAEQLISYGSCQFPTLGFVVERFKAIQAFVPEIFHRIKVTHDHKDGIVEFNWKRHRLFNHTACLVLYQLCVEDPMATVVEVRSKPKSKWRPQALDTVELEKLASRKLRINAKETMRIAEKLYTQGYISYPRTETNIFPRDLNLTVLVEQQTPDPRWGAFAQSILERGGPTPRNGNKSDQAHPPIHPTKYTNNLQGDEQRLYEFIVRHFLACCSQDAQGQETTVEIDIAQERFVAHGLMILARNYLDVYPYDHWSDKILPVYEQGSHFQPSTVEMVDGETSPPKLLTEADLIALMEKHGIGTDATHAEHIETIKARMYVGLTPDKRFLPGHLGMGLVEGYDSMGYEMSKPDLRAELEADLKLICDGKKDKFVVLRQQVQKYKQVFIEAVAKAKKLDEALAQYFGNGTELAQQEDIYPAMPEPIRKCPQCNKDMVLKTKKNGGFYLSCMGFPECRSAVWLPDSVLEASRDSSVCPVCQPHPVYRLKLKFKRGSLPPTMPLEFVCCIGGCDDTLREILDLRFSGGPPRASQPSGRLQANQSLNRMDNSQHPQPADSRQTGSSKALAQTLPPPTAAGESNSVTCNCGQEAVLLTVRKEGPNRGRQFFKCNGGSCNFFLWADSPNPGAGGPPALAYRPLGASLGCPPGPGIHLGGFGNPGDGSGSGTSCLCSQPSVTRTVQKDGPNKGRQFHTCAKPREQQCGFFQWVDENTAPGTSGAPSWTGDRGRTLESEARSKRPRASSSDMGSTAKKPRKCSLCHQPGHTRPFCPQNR
Chain of TOPOIIIalpha (TRR complex);RMI1 (TRR complex);RMI2 (TRR complex) (Q9H9A7 whole entry, chain 2 of 3): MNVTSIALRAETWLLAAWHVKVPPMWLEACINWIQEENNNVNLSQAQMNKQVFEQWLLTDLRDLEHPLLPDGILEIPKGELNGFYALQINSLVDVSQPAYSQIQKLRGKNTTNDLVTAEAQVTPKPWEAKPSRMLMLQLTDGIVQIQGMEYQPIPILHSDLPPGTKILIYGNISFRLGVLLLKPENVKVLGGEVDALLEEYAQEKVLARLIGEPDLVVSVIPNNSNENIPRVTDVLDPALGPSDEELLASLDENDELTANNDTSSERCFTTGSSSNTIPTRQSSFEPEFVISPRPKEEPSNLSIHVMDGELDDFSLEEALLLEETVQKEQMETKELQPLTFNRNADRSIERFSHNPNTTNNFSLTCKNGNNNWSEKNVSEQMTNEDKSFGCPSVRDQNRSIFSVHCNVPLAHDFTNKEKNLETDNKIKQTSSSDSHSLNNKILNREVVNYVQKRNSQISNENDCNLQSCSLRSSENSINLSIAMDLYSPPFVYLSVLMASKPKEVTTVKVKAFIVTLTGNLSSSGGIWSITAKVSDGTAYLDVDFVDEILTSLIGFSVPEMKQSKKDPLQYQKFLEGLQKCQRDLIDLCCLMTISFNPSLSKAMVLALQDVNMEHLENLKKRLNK
Chain of TOPOIIIalpha (TRR complex);RMI1 (TRR complex);RMI2 (TRR complex) (Q96E14 whole entry, chain 3 of 3): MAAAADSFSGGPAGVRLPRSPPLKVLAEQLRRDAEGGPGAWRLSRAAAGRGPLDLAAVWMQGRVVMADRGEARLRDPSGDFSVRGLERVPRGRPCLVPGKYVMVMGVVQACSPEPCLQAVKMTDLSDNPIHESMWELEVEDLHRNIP

B1: ss54-FLU (ssDNA)
DNA: TCCTTTTGATAAGAGGTCATTTTTGCGGATGGCTTAGAGCTTAATTGCGCAACG
- Kd: 64 ± 13 nM
